Assay results published in US9920133B2, “Anti-tissue factor monoclonal antibody” (NATIONAL CANCER CENTER, priority 2014, dated 2018).

Assays:
[1] = test system: Mouse B16 melanoma cells and cells thereof that were forced to express TF; assay: Internalization assay (anti-mTF antibody); type: cell-based; conditions: mouse B16 melanoma cells and TF-forced-expression cells, 30 μg Alexa 647-labeled antibody, 3 hours
Description: (§1) Each monoclonal antibody obtained as described above was subjected to the following internalization assay.
(§2) Mouse B16 melanoma cells and cells thereof that were forced to express TF were seeded into a four-chamber Culture Slide (BD) at 5×10^4 cells/chamber, and cultured in RPMI 1640 medium at 37° C. under a 5% CO2 environment for 12 hours. The resultant was washed three times with PBS, and then 30 μg of antibody labeled with an Alexa 647 fluorescence labeling kit (Invitrogen) was diluted with 1 ml of RPMI 1640 medium and added to each chamber, followed by culturing for 3 hours. After 2 hours from the initiation of this culturing, Lysotracker® RED-DND99 (Invitrogen) was added to the culture solution to have a final concentration of 75 nM, followed by further culturing for 1 hour. Then, the resultant was washed three times with PBS. After that, immobilization was performed with 4% paraformaldehyde, and nuclear staining was performed with 4′,6-diamidino-2-phenylindole (DAPI), followed by mounting with Fluoromount-G® (Southern Biotech). Then, the cells were observed using a fluorescence microscope (Keyence).

[2] = target: T1, recombinant hTF antigen (Homo sapiens, UniProt P13726); assay: Anticoagulant activity evaluation (prothrombin time); type: biochemical; conditions: based on prolonged coagulation time ratio
T1 construct: made in house; host or cells: Escherichia coli
Description: The prothrombin time of each of the anti-hTF monoclonal antibodies (No. 1849 and No. 1859) was measured as described below.
3 μg of the antibody was added to 350 ng of a recombinant hTF antigen, and PBS was added to a total volume of 5 μl. An antigen-antibody reaction was performed for 15 minutes under shaking at 37° C. and 600 rpm. To the reaction solution, 50 μl of human […] subjected to anticoagulant treatment with 3.8% sodium citrate, and 100 μl of 25 mM CaCl2 were added, and at the same time, culturing was performed under shaking at 37° C. and 600 rpm. The period of time until a fibrin clot was formed (prothrombin time) was measured. The prolonged coagulation time ratio (prothrombin time ratio) of each antibody when the prothrombin time in a control using PBS in place of the reaction solution is defined as 1 are shown in Table 3 and FIG. 2.

[3] = test system: Pancreatic cancer cells BxPC3 that express TF in high amounts; assay: Internalization assay (anti-hTF antibodies); type: cell-based, human; conditions: 30 μg Alexa 647-labeled antibody, culturing for 3 hours, fluorescence microscope
Description: as §1
as §2, with “Pancreatic cancer” for “Mouse B16 melanoma”, “BxPC3” for “and cells thereof”, “that” for “that were forced to”, “TF in high amounts” for “TF”

[4] = Body weight in the antitumor effect confirmation test; type: in vivo, nude mice (BALBc nu/nu); conditions: BxPC3 xenograft nude mice, 10 mg/kg tail vein on Day 0, 4, 8, until Day 30
Description: (§3) 1×10^7 cells/100 μL of human pancreatic cancer cells (BxPC3) were implanted subcutaneously into the backs of 4-week-old nude mice (BALBc nu/nu, female), and treatment was initiated when the tumor volume (calculated based on the tumor diameter) reached about 200 mm^3. The day of initiation of the treatment was defined as Day 0, and a drug was administered to the tail vein once on each of Day 0, Day 4, and Day 8 (administration three times in total). hTF-MMAE was used as the drug, and physiological saline was administered as a control (each group: N=7). The dose of the drug was 10 mg/kg per administration (antibody amount: about 200 μg/mouse). Thereafter, the tumor diameter and the body weight were measured twice a week until Day 30. The ratios of the tumor volume and the body weight to the tumor volume and the body weight at Day 0 are shown in FIG. 4 and FIG. 5, respectively.

[5] = test system: Human pancreatic cancer cells (BxPC3); assay: Cytocidal effect confirmation test; type: cell-based; conditions: BxPC3, 72 hours after addition, compared to mTF-MMAE
Description: Human pancreatic cancer cells (BxPC3) were added to a 96-well plate at 3×10^3 cells/well, and cultured in RPMI medium containing 10% FCS, penicillin (100 U/ml), and streptomycin (100 μg/ml) hTF-MMAE was added to the wells at various drug concentrations, and cell survival rates 72 hours after the addition were calculated.
It should be noted that, as a comparative test, a similar test was performed using, in place of hTF-MMAE, mTF-MMAE obtained by binding MMAE, in the same manner as above, to a monoclonal antibody (mTF) against mouse TF not expressed in human cancer cells, and a cell survival rate was calculated. The ratio (%) of each cell survival rate, with the cell survival rate of a negative control (no addition of a drug sample) being defined as 100%, is shown in FIG. 3.

[6] = test system: human pancreatic cancer cells (BxPC3) implanted subcutaneously; assay: Antitumor effect confirmation test (tumor volume); type: in vivo, nude mice (BALBc nu/nu); conditions: BxPC3 xenograft nude mice, 10 mg/kg tail vein on Day 0, 4, 8, until Day 30
Description: as §3

T1 sequence (P13726 with tags, fused parts or gaps): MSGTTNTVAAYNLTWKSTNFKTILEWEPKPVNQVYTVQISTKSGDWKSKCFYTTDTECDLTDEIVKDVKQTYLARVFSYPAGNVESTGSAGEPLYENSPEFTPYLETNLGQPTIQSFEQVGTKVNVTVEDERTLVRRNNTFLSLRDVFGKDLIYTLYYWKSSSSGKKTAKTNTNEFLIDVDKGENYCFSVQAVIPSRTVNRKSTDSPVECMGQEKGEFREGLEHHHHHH

B1: No. 1157: anti-mouse tissue factor monoclonal antibody, heavy/light chain variable regions SEQ ID NOS: 25 and 26 (antibody, V domains shown)
VH: MAEVMLVESGGGLVQPGRSLKLSCLASGFTFTDYGMNWIRQTPGKGLEWVASITVRNYIYYADTVKGRFTISRENAKNTLYLQMTSLTSEDTALYYCSRRTEGMDYWGQGVMVTVSS
VL: MTQSPSFLSASVGDRVTVTCKVSQNINGYLNWYQQKVGEAPKVLIYNTDNLQTDVPSRFSGSGSGTVFTLTISSLHPEDVATHFCLQHYSWPLTFGSGTQLEIKR
modifications: rat
**Q.** With B1 as the molecule, how does the “ability to be internalized (fluorescence-labeled antibody transferred into cells)” value [1] read?
**A.** had the ability to be internalized by a cell expressing mTF

B2: No. 1859: anti-human tissue factor monoclonal antibody, heavy/light chain variable regions SEQ ID NOS: 17 and 18 (antibody, V domains shown)
VH: EVMLVESGPGLVQPSQTLSLICTVSGFSLTDYSVHWVRQPPGKGLEWVGVMWSGGTTTFNSGLKSRLSISRDTSKSQVFLKMYSLRTEDTAVYYCTRERAGSPLNWFAYWGQGTLVTVSS
VL: DIVMTQSPASLSASLEEIVTITCQASQDIGNYLSWYQQKPGKSPHLLIHSSTSLADGVPSRFSGSRSGTQYSLKINRLQVEDTGVYYCLQHYSGSRTFGGGTNLELK
modifications: rat
**Q.** For B2, which anticoagulant activity [2] is on record?
**A.** extremely small

**Q.** And the “ability to be internalized (labeling substance transferred into cells)” value [3]?
**A.** had the ability to be internalized

B3: No. 1849: rat anti-human tissue factor monoclonal antibody, heavy/light chain variable regions SEQ ID NOS: 9 and 10 (antibody, V domains shown)
VH: EVQLVESGGGLVQSGRSLKLSCAASGFTFSDYNMAWIRQAPKKGLEWVAAIIYDGTRTYYRDSVRGRFTISRDNAKSTLYLQVDSLRSEDTATYYCATGDSYTNFAYWGQGTLVTVSS
VL: EIVLTQSPTTMAASPGEKVTLTCRASSSLSYMHWYQQRSGTSPKLWIYETSKLASGVPNRFSGSGSGTSFSLTIDSMETEDAATYYCQQGNSYPRTFGGGTKLELK
modifications: rat
**Q.** Which “ability to be internalized (labeling substance transferred into cells)” value [3] does the source give for B3 here?
**A.** had the ability to be internalized

B4: hTF-MMAE: anti-hTF monoclonal antibody (No. 1849) having monomethyl auristatin E (MMAE) bound thereto, three to five MMAE molecules per antibody (conjugate)
VH: B3 VH
VL: B3 VL
modifications: non-natural residues
**Q.** For B4, which “body weight (ratio to Day 0)” value [4] is on record?
**A.** a reduction in body weight was not found

**Q.** And the “cytocidal effect (cell survival rate)” value [5]?
**A.** remarkably excellent cytocidal effect

**Q.** And the “antitumor effect (tumor volume ratio to Day 0)” value [6]?
**A.** remarkably excellent antitumor effect
